This passage reports Ki results from publication PMC3142331.

The target of this test is Mce1-(227–567) protein, RNA guanylyltransferase (GTase) domain of mouse mammalian capping enzyme (mouse) (UniProt O55236). The test can be described thus: fluorescence polarisation.
Mce1-(227–567) protein, RNA guanylyltransferase (GTase) domain of mouse mammalian capping enzyme (mouse), sequence (O55236 227-567): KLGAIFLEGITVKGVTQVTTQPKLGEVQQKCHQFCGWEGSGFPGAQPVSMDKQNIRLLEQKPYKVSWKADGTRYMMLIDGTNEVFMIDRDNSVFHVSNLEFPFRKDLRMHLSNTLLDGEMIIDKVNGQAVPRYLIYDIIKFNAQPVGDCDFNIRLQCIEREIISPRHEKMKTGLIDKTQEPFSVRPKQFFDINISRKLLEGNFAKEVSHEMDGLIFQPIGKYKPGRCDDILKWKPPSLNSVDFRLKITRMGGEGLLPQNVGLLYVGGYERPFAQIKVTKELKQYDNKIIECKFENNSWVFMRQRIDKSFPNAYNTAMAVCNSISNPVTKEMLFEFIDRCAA

In turn, “unlabeled 11 aa phosphorylated CTD peptide (S2P3T4S5PP6S7Y1S2PP3T4S5)” had an inhibitory constant (Ki) of 160 µM.
